According to US20150274820A1 (ESBATECH AN ALCON BIOMEDICAL RESEARCH UNIT, published 2015):
Changes are numbered by the printed parent chain.

T1: recombinant human PLGF (human, UniProt P49763-2 19-149, limits assumed)
T1 construct: Negative control; also called PIGF
T1 sequence (looked up): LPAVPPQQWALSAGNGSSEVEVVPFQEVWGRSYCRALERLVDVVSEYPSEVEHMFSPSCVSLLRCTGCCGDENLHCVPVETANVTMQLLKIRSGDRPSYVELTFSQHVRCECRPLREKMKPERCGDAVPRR

T2: recombinant human VEGF110 (human, UniProt P15692-4 27-136, limits assumed)
T2 construct: Made in house; also called hVEGF110
T2 sequence (looked up): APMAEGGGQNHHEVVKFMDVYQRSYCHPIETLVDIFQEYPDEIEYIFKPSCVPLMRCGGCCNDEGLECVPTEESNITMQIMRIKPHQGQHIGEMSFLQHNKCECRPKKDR

T3: recombinant human VEGF121 (human, UniProt P15692 27-147)
T3 construct: mature; Isoform VEGF121 of the entry; also called hVEGF121
T3 sequence (looked up): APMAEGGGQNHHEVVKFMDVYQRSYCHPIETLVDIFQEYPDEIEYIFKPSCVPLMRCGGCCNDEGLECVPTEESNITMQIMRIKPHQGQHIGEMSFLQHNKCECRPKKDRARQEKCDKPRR

B1: 511-min (scFv)
scFv: EIVMTQSPSTLSASVGDRVIITCQASQSINIWCSWYQQKPGKAPKLLIYRASTLASGVPSRFSGSGSGAEFTLTISSLQPDDFATYYCQANYAYSAGYGAAFGQGTKLTVLGGGGGSGGGGSGGGGSGGGGSEVQLVESGGGLVQPGGSLRLSCAASGFSLNTYYMNWVRQAPGKGLEWVSIIAPDDTTYYASWAKSRFTISRDNSKNTLYLQMNSLRAEDTAVYYCAKSGDTTAWGADIWGQGTLVTVSS
notes: VL and VH tied by name; also called Protein Nr
B2: 511-max (scFv)
scFv: B1 scFv with C33L, A69T, A155T, A156V, S181G, F199S, N205T, L210V, K229R
notes: also called ESBA802
B3: 534-max (scFv)
scFv: EIVMTQSPSTLSASVGDRVIITCQASQSINIWLSWYQQKPGKAPKLLIYKESTLASGVPSRFSGSGSGTEFTLTISSLQPDDFATYYCQNNYDSGNNGFPFGQGTKLTVLGGGGGSGGGGSGGGGSGGGGSEVQLVESGGGLVQPGGSLRLSCTASGFSLSYYYMSWVRQAPGKGLEWVGIIGPGDYTDYASWAKGRFTISKDTSKNTVYLQMNSLRAEDTAVYYCARGDDNSGWGEDIWGQGTLVTVSS
notes: VL and VH tied by name; also called EP534max; Protein Nr; 793

Columns and labels:
[1] = target: T4, recombinant human VEGF165 (human, UniProt P15692 27-191); test: cell-based or functional assay
Target sequence in this assay (P15692 other isoform, or with tags, fused parts or gaps): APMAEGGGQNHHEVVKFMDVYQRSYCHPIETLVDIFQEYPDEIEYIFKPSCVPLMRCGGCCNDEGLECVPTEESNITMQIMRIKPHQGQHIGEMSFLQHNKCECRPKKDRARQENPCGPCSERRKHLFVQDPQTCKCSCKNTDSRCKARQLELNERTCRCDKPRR

[2] = target: T4, recombinant human VEGF165; test: Biacore SPR, VEGF immobilized, pH 5
Experimental: In this example, the Biacore-binding ability of scFvs was tested and the binding affinity was measured using the exemplary surface plasmon resonance method with BIAcore™-T100. The VEGF proteins, tested for binding by these scFv candidates, in this example and later examples include purified Escherichia coli-expressed recombinant human VEGF₁₆₅ (PeproTech EC Ltd.), recombinant human VEGF₁₂₁ (PeproTech EC Ltd.), recombinant human VEGF₁₁₀ (ESBATech AG), recombinant murine VEGF₁₆₄ (PeproTech EC Ltd.), recombinant rat VEGF₁₆₄ (Biovision), recombinant rabbit VEGF₁₁₀ (ESBATech AG), and recombinant human PLGF (PeproTech EC Ltd.). For the surface plasmon resonance experiment, carboxymethylated dextran biosensor chips (CM4, GE Healthcare) were activated with N-ethyl-N′-(3-dimethylaminopropyl) carbodiimide hydrochloride and N-hydroxysuccinimide according to the supplier's instructions. Each of the 6 different VEGF forms, as exemplified above, was coupled to 1 of the 4 different flow cells on a CM4 sensor chip using a standard amine-coupling procedure. […] The 4th flow cell of each chip was treated similarly except no proteins were immobilized prior to blocking, and the flow cell was used as in-line reference. […] Dissociation of the anti-VEGF scFv from the VEGF on the CM4 chip was allowed to proceed for 10 min at 25° C. Sensorgrams were generated for each anti-VEGF scFv sample after in-line reference cell correction followed by buffer sample subtraction. The apparent dissociation rate constant (kd), the apparent association rate constant (kₐ) and the apparent dissociation equilibrium constant (KD) were calculated using one-to-one Langmuir binding model with BIAcore T100 evaluation Software version 1.1. […]
Target sequence in this assay (P15692 other isoform, or with tags, fused parts or gaps): as above

[3] = target: T4, recombinant human VEGF165; test: VEGFR1/Fc competition ELISA on coated hVEGF165; ratio to Lucentis
Experimental: After 30-60 min of incubation at room temperature, the mixtures were transferred to the human VEGF₁₆₅ immobilized plate and incubated for 90 min. […] Optical density at 450 nm (OD 450 nm) was measured using a Sunrise microplate reader (Tecan). Data were analyzed as above, and EC₅₀ values were calculated from the dose-response curves of the scFvs.
Target sequence in this assay (P15692 other isoform, or with tags, fused parts or gaps): as above

recombinant human PLGF = target: T1, recombinant human PLGF; test: Biacore SPR, PlGF immobilized, pH 5
Experimental: (§1) In this example, the Biacore-binding ability of scFvs was tested and the binding affinity was measured using the exemplary surface plasmon resonance method with BIAcore™-T100. The VEGF proteins, tested for binding by these scFv candidates, in this example and later examples include purified Escherichia coli-expressed recombinant human VEGF₁₆₅ (PeproTech EC Ltd.), recombinant human VEGF₁₂₁ (PeproTech EC Ltd.), recombinant human VEGF₁₁₀ (ESBATech AG), recombinant murine VEGF₁₆₄ (PeproTech EC Ltd.), recombinant rat VEGF₁₆₄ (Biovision), recombinant rabbit VEGF₁₁₀ (ESBATech AG), and recombinant human PLGF (PeproTech EC Ltd.). For the surface plasmon resonance experiment, carboxymethylated dextran biosensor chips (CM4, GE Healthcare) were activated with N-ethyl-N′-(3-dimethylaminopropyl) carbodiimide hydrochloride and N-hydroxysuccinimide according to the supplier's instructions. Each of the 6 different VEGF forms, as exemplified above, was coupled to 1 of the 4 different flow cells on a CM4 sensor chip using a standard amine-coupling procedure. […] The 4th flow cell of each chip was treated similarly except no proteins were immobilized prior to blocking, and the flow cell was used as in-line reference. […] Dissociation of the anti-VEGF scFv from the VEGF on the CM4 chip was allowed to proceed for 10 min at 25° C. Sensorgrams were generated for each anti-VEGF scFv sample after in-line reference cell correction followed by buffer sample subtraction. The apparent dissociation rate constant (kd), the apparent association rate constant (kₐ) and the apparent dissociation equilibrium constant (KD) were calculated using one-to-one Langmuir binding model with BIAcore T100 evaluation Software version 1.1.

[4] = target: T4, recombinant human VEGF165; test: Biacore SPR, VEGF immobilized, pH 5; remark: listed apart in the source
Experimental: as §1
Target sequence in this assay (P15692 other isoform, or with tags, fused parts or gaps): as above

[5] = target: recombinant rat VEGF164 (rat) (UniProt P16612); test: Biacore SPR, VEGF immobilized, pH 5
[6] = target: recombinant murine VEGF164 (mouse) (UniProt Q00731); test: Biacore SPR, VEGF immobilized, pH 5
[7] = target: T4, recombinant human VEGF165; test: cell-based or functional assay; remark: listed apart in the source
[8] = target: T4, recombinant human VEGF165; test: Biacore SPR, VEGF immobilized, pH 7.4
Experimental: as §1
Target sequence in this assay (P15692 other isoform, or with tags, fused parts or gaps): as above

[9] = target: T2, recombinant human VEGF110; test: Biacore SPR, VEGF immobilized, pH 5
Experimental: as §1

[10] = target: T4, recombinant human VEGF165; test: Biacore SPR, VEGF immobilized, pH 5; remark: listed apart in the source
Experimental: as §1
Target sequence in this assay (P15692 other isoform, or with tags, fused parts or gaps): as above

[11] = target: T3, recombinant human VEGF121; test: Biacore SPR, VEGF immobilized, pH 5
Experimental: as §1

[12] = target: T4, recombinant human VEGF165; test: cell-based or functional assay; remark: listed apart in the source

| Binder | Rel. activity in HUVEC assay (EC50Luc[nM]/EC50test[nM]) [1] | koff [2] | kon [2] | Rel. activity hVEGR1 comp. ELISA (EC50Luc[nM]/EC50test[nM]) [3] | binding result (recombinant human PLGF) | koff [4] | kon [4] | koff [5] | kon [5] | koff [6] | kon [6] | Rel. activity in HUVEC assay (EC50Luc[nM]/EC50test[nM]) hVEGF [7] | koff [8] | kon [8] | koff [9] | kon [9] | koff [10] | kon [10] | koff [11] | kon [11] | also measured |
| --- | --- | --- | --- | --- | --- | --- | --- | --- | --- | --- | --- | --- | --- | --- | --- | --- | --- | --- | --- | --- | --- |
| B1 | 0.0011 | 0.00128 s⁻¹ | 505000 M⁻¹ s⁻¹ | 0.7 | no binding | 0.00128 s⁻¹ | 505000 M⁻¹ s⁻¹ | 0.00112 s⁻¹ | 550000 M⁻¹ s⁻¹ | 0.00103 s⁻¹ | 625000 M⁻¹ s⁻¹ | 0.0011 | 0.000885 s⁻¹ | 675000 M⁻¹ s⁻¹ | 0.000898 s⁻¹ | 619000 M⁻¹ s⁻¹ | 0.00128 s⁻¹ | 505000 M⁻¹ s⁻¹ | 0.000963 s⁻¹ | 778000 M⁻¹ s⁻¹ |  |
| B2 | 0.0179 | 4.4e-05 s⁻¹ | 659000 M⁻¹ s⁻¹ | 8 | no binding | 4.4e-05 s⁻¹ | 659000 M⁻¹ s⁻¹ | 6.63e-05 s⁻¹ | 626000 M⁻¹ s⁻¹ | 4.61e-05 s⁻¹ | 753000 M⁻¹ s⁻¹ | 0.0179 | 6.85e-05 s⁻¹ | 800000 M⁻¹ s⁻¹ | 7.96e-05 s⁻¹ | 405000 M⁻¹ s⁻¹ | 4.4e-05 s⁻¹ | 659000 M⁻¹ s⁻¹ | 9.97e-05 s⁻¹ | 467000 M⁻¹ s⁻¹ |  |
| B3 | 0.0014 |  |  |  |  | 0.0173 s⁻¹ | 1.88e+06 M⁻¹ s⁻¹ |  |  |  |  |  | 0.00262 s⁻¹ | 1.06e+06 M⁻¹ s⁻¹ |  |  |  |  |  |  | EC50 in HUVEC assay (FIG. 8c) [12]: 0.0635 µM |
